From US10975357B2, “Methods and compositions related to differentiated lung cells” (TRUSTEES OF BOSTON UNIVERSITY, priority 2017, dated 2021) come the findings set out here.

Test [1] concerns NKX2-1+ lung epithelial progenitor cells. Nature of the test: SFTPCtdTomato reporter induction in day 15 NKX2-1+ progenitor outgrowth in 3D culture (flow cytometry). Format: cell-based, human. Conditions: for further SFTPC induction efficiency with addition of the factor: factor added to differentiation media, FIG. 9B. How it is done: Purification of NKX2-1+ Lung Progenitors by Cell Sorting. On day 15 of differentiation, cells were incubated at 37° C. in 0.05% trypsin-EDTA (Invitrogen) for 7-15 minutes, until they reached single cell suspension. Cells were then washed in media containing 10% fetal bovine serum (FBS, ThermoFisher), centrifuged at 300g×5 minutes, and resuspended in sort buffer containing Hank's Balanced Salt Solution (ThermoFisher), 2% FBS, 10 μM Y-27632, and 10 uM calcein blue AM (Life Technologies) for dead cell exclusion. Cells not containing the NKX2-1GFP reporter were subsequently stained with CD47-PerCPCy5.5 and CD26-PE antibodies (mouse monoclonal; Biolegend 1:200; 1×10^6 cells in 100 ul) for 30 minutes at 4° C., washed with PBS, and resuspended in sort buffer. Cells were passed through a 40 um strainer prior to sorting (Falcon). Various live cell populations indicated in the text (i.e. GFP+, GFP−, CD47hi/CD26−,CD47lo) were sorted on a high-speed cell sorter (MoFlo Legacy). Directed Differentiation of NKX2-1+ Lung Progenitor Outgrowth into iAEC2s Day 15 cells, either sorted (as described above) or unsorted (dissociated as described above), were resuspended in undiluted growth factor-reduced matrigel (Corning) at a dilution of 50-100 cells/ul, with droplets ranging in size from 20 ul in 96 well plates to 1 ml in 10 cm tissue culture-treated dishes (Corning). Cells in matrigel suspension were incubated at 37° C. for 20-30 minutes, then warm media was added to the plates.
(§1) Where indicated in the text, outgrowth and distal/alveolar differentiation of cells after day 15 was performed in “CK+DCI” medium, consisting of cSFDM base, with 3 μM CHIR99021, 10 ng/mL rhKGF, and 50 nM dexamethasone (Sigma), 0.1 mM 8-Bromoadenosine 3′,5′-cyclic monophosphate sodium salt (Sigma) and 0.1 mM 3-Isobutyl-1-methylxanthine (IBMX) (Sigma) (DCI). Immediately after replating cells on Day 15 10 μM Y-27632 was added to the medium for 24 hours. Additional growth factors or cytokines were added or withdrawn as indicated in the text, including FGF10, TGFb, EGF, OSM (20 ng/ml), TNFa (10 ng/ml), and IL-1b (10 ng/ml) with other concentrations listed in figure legends (FIGS. 9A, 9B).
Alveolosphere Long Term Culture, Dissociation, and Differentiation. […] These spheres were analyzed as follows: Z-stack images of live alveolospheres were taken and processed on a Keyence (Osaka, Japan) BZ-X700 fluorescence microscope. […] To generate single cell suspensions, cell pellets were incubated in 0.05% trypsin and continued through the trypsin-based dissociation protocol described above, after which they could be passaged into fresh matrigel, analyzed by flow cytometry, or sorted as described above. […]
(In general: Flow cytometry measures light scatter and fluorescence of single cells or particles in a stream.)

The next test relates to JAK/STAT3 pathway. Nature of the test: Cytokine stimulation of PSC-derived alveolospheres, JAK/STAT3 pathway (Western blot phospho-STAT3, SOCS3 RT-qPCR). Format: cell-based, human. The conditions noted are these: OSM 20 ng/ml. How it is done:
as §1
Reverse Transcriptase Quantitative Real Time Polymerase Chain Reaction (RT-qPCR). RT-qPCR was performed as previously described (Hawkins et al. 2017,). Briefly, RNA was isolated according to manufacturer's instructions using the Qiagen miRNeasy mini kit (Qiagen, Venlo, Netherlands). cDNA was generated by reverse transcription of up to 150 ng RNA from each sample using the Applied Biosystems High-Capacity cDNA Reverse Transcription Kit. […] Relative gene expression was calculated based on the average cycle (Ct) value of the technical triplicates, normalized to 18S control, and reported as fold change (2(−ΔΔCT)), with a fold change of 1 being assigned to undifferentiated (day 0) iPSCs or ESCs. […]

B1: FGF10: Recombinant human FGF10 (protein, UniProt O15520 38-208, looked up)
Fibroblast growth factor 10: QALGQDMVSPEATNSSSSSFSSPSSAGRHVRSYNHLQGDVRWRKLFSFTKYFLKIEKNGKVSGTKKENCPYSILEITSVEIGVVAVKAINSNYYLAMNKKGKLYGSKEFNNDCKLKERIEENGYNTYASFNWQHNGRQMYVALNGKGAPRRGQKTRRKNTSAHFLPMVVHS
On to B1, for which, in test [1], the “further SFTPC induction efficiency with addition of the factor” value was “No consistent further SFTPC induction efficiency”.

B2: BMP4: recombinant human BMP4 (protein, UniProt P12644 293-408, looked up)
Bone morphogenetic protein 4: SPKHHSQRARKKNKNCRRHSLYVDFSDVGWNDWIVAPPGYQAFYCHGDCPFPLADHLNSTNHAIVQTLVNSVNSSIPKACCVPTELSAISMLYLDEYDKVVLKNYQEMVVEGCGCR
B2: in test [1], the “further SFTPC induction efficiency with addition of the factor” value is “No consistent further SFTPC induction efficiency”.

B3: KGF: Recombinant human KGF, agonist of FGF signaling (protein, UniProt P21781 32-194, looked up)
Fibroblast growth factor 7: CNDMTPEQMATNVNCSSPERHTRSYDYMEGGDIRVRRLFCRTQWYLRIDKRGKVKGTQEMKNNYNIMEIRTVAVGIVAIKGVESEFYLAMNKEGKLYAKKECNEDCNFKELILENHYNTYASAKWTHNGGEMFVALNQKGIPVRGKKTKKEQKTAHFLPMAIT
For the molecule B3, the “need for initial induction of the tdTomato reporter” value in test [1] (component removed from media, FIG. 9A, 9B) is “dispensable”. Further, in test [1] (day 21, FIG. 9B), the “promoting outgrowth of tdTomato+ cells by day 21, combined with CHIR, compared to FGF10+CHIR” value is listed as “more consistent”.

B4: OSM: Recombinant human OSM, cytokine activating the JAK/STAT3 pathway (protein, UniProt P13725 26-221, looked up)
Oncostatin-M: AAIGSCSKEYRVLLGQLQKQTDLMQDTSRLLDPYIRIQGLDVPKLREHCRERPGAFPSEETLRGLGRRGFLQTLNATLGCVLHRLADLEQRLPKAQDLERSGLNIEDLEKLQMARPNILGLRNNIYCMAQLLDNSDTAEPTKAGRGASQPPTPTPASDAFQRKLEGCRFLHGYHRFMHSVGRVFSKWGESPNRSRR
As to B4, the “STAT3 signaling (phosphorylated STAT3 protein, SOCS3 mRNA)” value with JAK/STAT3 pathway was “significant and rapid activation of STAT3 signaling”.
